Reference: US9958461B2, “Detection of protein to protein interactions” (THE GOVERNING COUNCIL OF THE UNIVERSITY OF TORONTO, priority 2013, dated 2018)

Legend:
[1] = tested on: EGFR-Wt; test: MaMTH EGFR-interactor screen, lentiviral preys against EGFR-wildtype bait (interaction score); assay type: cell-based, human; conditions: ratio of EGFR-Wt mean to EGFR-L858R mean interaction score
Protocol: (§1) After lentivirus harvest, target cells (stable 5×GAL4UAS-luciferase reporter-HEK293T cells) were infected at a multiplicity of infection (MOI) of around 0.3-0.4 to ensure single copy integration per cell. Cells were selected in puromycin for at least 48 h and transfected with either EGFR-wildtype or EGFR-L858R baits in triplicates. 24 h after transfection, cells were lysed and luciferase assays performed. On each set of interaction assays, various negative controls were included. To calculate a MaMTH-interaction scores, negative controls were averaged and the fold-change of luciferase activity compared to the averaged controls was calculated and defined as the interaction score.
(§2) Each set of experiments contains a defined set of negative controls in at least three replicates. Negative controls were chosen as such that there is a range of controls showing high-background luciferase activity (normally cytosolic proteins: Fabp5, Pex19) as well as medium-background luciferase activity (membrane-bound interactors: Pex7, GABBR2). Negative controls were averaged and the fold-change of luciferase activity was calculated. Using this method, we have a stringent cut-off and chose an interaction score >1 to be interacting proteins.
(§3) Our cut-off of 1 is based on fold-change difference in luciferase activity over averaged negative controls. Negative controls include cytosolic preys (which tend to promiscuously bind to many proteins), plasma membrane- and peroxisomal-prey proteins. In general, we chose stringent conditions by testing preys that tend to have high luciferase background with any bait tested, in order to generate high-confidence interaction data. […] Phosphorylated tyrosine residues on the receptor are typically docking sites for downstream cytoplasmic targets and recognized through SH2 or PTB domains^43.

[2] = target: T1, EGFR-Wt (Homo sapiens, UniProt P00533); test: as above; assay type: cell-based; conditions: MaMTH interaction score of prey with EGFR-Wt bait, mean
T1 construct: with the advantage of testing full-length integral membrane proteins; (GGGGS)2 linker-Cub (human ubiquitin aa 35-76)-GAL4(1-147)-mNFkB(364-550) (C); expressed in transfected cells
Protocol: as §1, §2, §3

[3] = target: T2, EGFR-L858R (Homo sapiens, UniProt P00533, L858R); test: MaMTH EGFR-interactor screen, lentiviral preys against EGFR-L858R bait (interaction score); assay type: cell-based; conditions: MaMTH interaction score of prey with EGFR-L858R bait
T2 construct: with the advantage of testing full-length integral membrane proteins; (GGGGS)2 linker-Cub (human ubiquitin aa 35-76)-GAL4(1-147)-mNFkB(364-550) (C); expressed in transfected cells
Protocol: as §1, §2, §3

| Molecule | Wt/L858R [1] | EGFR-Wt mean [2] | EGFR-L858R mean [3] |
| --- | --- | --- | --- |
| ZAP70 (protein, UniProt P43403 1-619, looked up) Tyrosine-protein kinase ZAP-70: MPDPAAHLPFFYGSISRAEAEEHLKLAGMADGLFLLRQCLRSLGGYVLSLVHDVRFHHFPIERQLNGTYAIAGGKAHCGPAELCEFYSRDPDGLPCNLRKPCNRPSGLEPQPGVFDCLRDAMVRDYVRQTWKLEGEALEQAIISQAPQVEKLIATTAHERMPWYHSSLTREEAERKLYSGAQTDGKFLLRPRKEQGTYALSLIYGKTVYHYLISQDKAGKYCIPEGTKFDTLWQLVEYLKLKADGLIYCLKEACPNSSASNASGAAAPTLPAHPSTLTHPQRRIDTLNSDGYTPEPARITSPDKPRPMPMDTSVYESPYSDPEELKDKKLFLKRDNLLIADIELGCGNFGSVRQGVYRMRKKQIDVAIKVLKQGTEKADTEEMMREAQIMHQLDNPYIVRLIGVCQAEALMLVMEMAGGGPLHKFLVGKREEIPVSNVAELLHQVSMGMKYLEEKNFVHRDLAARNVLLVNRHYAKISDFGLSKALGADDSYYTARSAGKWPLKWYAPECINFRKFSSRSDVWSYGVTMWEALSYGQKPYKKMKGPEVMAFIEQGKRMECPPECPPELYALMSDCWIYKWEDRPDFLTVEQRMRACYYSLASKVEGPPGSTQKAEAACA | 1.04 | 16.92 | 16.20 |
| GRAP2 (protein, UniProt O75791 1-330, looked up) GRB2-related adapter protein 2: MEAVAKFDFTASGEDELSFHTGDVLKILSNQEEWFKAELGSQEGYVPKNFIDIQFPKWFHEGLSRHQAENLLMGKEVGFFIIRASQSSPGDFSISVRHEDDVQHFKVMRDNKGNYFLWTEKFPSLNKLVDYYRTNSISRQKQIFLRDRTREDQGHRGNSLDRRSQGGPHLSGAVGEEIRPSMNRKLSDHPPTLPLQQHQHQPQPPQYAPAPQQLQQPPQQRYLQHHHFHQERRGGSLDINDGHCGTGLGSEMNAALMHRRHTDPVQLQAAGRVRWARALYDFEALEDDELGFHSGEVVEVLDSSNPSWWTGRLHNKLGLFPANYVAPMTR | 0.22 | 1.79 | 8.12 |
| SH3GL3 (protein, UniProt Q99963 1-347, looked up) Endophilin-A3: MSVAGLKKQFHKASQLFSEKISGAEGTKLDDEFLDMERKIDVTNKVVAEILSKTTEYLQPNPAYRAKLGMLNTVSKIRGQVKTTGYPQTEGLLGDCMLKYGKELGEDSTFGNALIEVGESMKLMAEVKDSLDINVKQTFIDPLQLLQDKDLKEIGHHLKKLEGRRLDYDYKKKRVGKIPDEEVRQAVEKFEESKELAERSMFNFLENDVEQVSQLAVFIEAALDYHRQSTEILQELQSKLQMRISAASSVPRREYKPRPVKRSSSELNGVSTTSVVKTTGSNIPMDQPCCRGLYDFEPENQGELGFKEGDIITLTNQIDENWYEGMIHGESGFFPINYVEVIVPLPQ | 1.05 | 3.41 | 3.26 |
| RAPGEF1 (protein, UniProt Q13905 1-1077, looked up) Rap guanine nucleotide …: MDTDSQRSHLSSFTMKLMDKFHSPKIKRTPSKKGKPAEVSVKIPEKPVNKEATDRFLPEGYPLPLDLEQQAVEFMSTSAVASRSQRQKNLSWLEEKEKEVVSALRYFKTIVDKMAIDKKVLEMLPGSASKVLEAILPLVQNDPRIQHSSALSSCYSRVYQSLANLIRWSDQVMLEGVNSEDKEMVTTVKGVIKAVLDGVKELVRLTIEKQGRPSPTSPVKPSSPASKPDGPAELPLTDREVEILNKTTGMSQSTELLPDATDEEVAPPKPPLPGIRVVDNSPPPALPPKKRQSAPSPTRVAVVAPMSRATSGSSLPVGINRQDFDVDCYAQRRLSGGSHSYGGESPRLSPCSSIGKLSKSDEQLSSLDRDSGQCSRNTSCETLDHYDPDYEFLQQDLSNADQIPQQTAWNLSPLPESLGESGSPFLGPPFQLPLGGHPQPDGPLAPGQQTDTPPALPEKKRRSAASQTADGSGCRVSYERHPSQYDNISGEDLQSTAPIPSVPYAPFAAILPFQHGGSSAPVEFVGDFTAPESTGDPEKPPPLPEKKNKHMLAYMQLLEDYSEPQPSMFYQTPQNEHIYQQKNKLLMEVYGFSDSFSGVDSVQELAPPPALPPKQRQLEPPAGKDGHPRDPSAVSGVPGKDSRDGSERAPKSPDALESAQSEEEVDELSLIDHNEIMSRLTLKQEGDDGPDVRGGSGDILLVHATETDRKDLVLYCEAFLTTYRTFISPEELIKKLQYRYEKFSPFADTFKKRVSKNTFFVLVRVVDELCLVELTEEILKLLMELVFRLVCNGELSLARVLRKNILDKVDQKKLLRCATSSQPLAARGVAARPGTLHDFHSHEIAEQLTLLDAELFYKIEIPEVLLWAKEQNEEKSPNLTQFTEHFNNMSYWVRSIIMLQEKAQDRERLLLKFIKIMKHLRKLNNFNSYLAILSALDSAPIRRLEWQKQTSEGLAEYCTLIDSSSSFRAYRAALSEVEPPCIPYLGLILQDLTFVHLGNPDYIDGKVNFSKRWQQFNILDSMRCFQQAHYDMRRNDDIINFFNDFSDHLAEEALWELSLKIKPRNITRRKTDREEKT | 1.10 | 3.48 | 3.15 |
| CAMLG (protein, UniProt P49069 1-296, looked up) Guided entry of tail-anchored …: MESMAVATDGGERPGVPAGSGLSASQRRAELRRRKLLMNSEQRINRIMGFHRPGSGAEEESQTKSKQQDSDKLNSLSVPSVSKRVVLGDSVSTGTTDQQGGVAEVKGTQLGDKLDSFIKPPECSSDVNLELRQRNRGDLTADSVQRGSRHGLEQYLSRFEEAMKLRKQLISEKPSQEDGNTTEEFDSFRIFRLVGCALLALGVRAFVCKYLSIFAPFLTLQLAYMGLYKYFPKSEKKIKTTVLTAALLLSGIPAEVINRSMDTYSKMGEVFTDLCVYFFTFIFCHELLDYWGSEVP | 1.00 | 7.16 | 7.17 |
| ABL2 (protein, UniProt P42684 2-1182, looked up) Tyrosine-protein kinase ABL2: GQQVGRVGEAPGLQQPQPRGIRGSSAARPSGRRRDPAGRTTETGFNIFTQHDHFASCVEDGFEGDKTGGSSPEALHRPYGCDVEPQALNEAIRWSSKENLLGATESDPNLFVALYDFVASGDNTLSITKGEKLRVLGYNQNGEWSEVRSKNGQGWVPSNYITPVNSLEKHSWYHGPVSRSAAEYLLSSLINGSFLVRESESSPGQLSISLRYEGRVYHYRINTTADGKVYVTAESRFSTLAELVHHHSTVADGLVTTLHYPAPKCNKPTVYGVSPIHDKWEMERTDITMKHKLGGGQYGEVYVGVWKKYSLTVAVKTLKEDTMEVEEFLKEAAVMKEIKHPNLVQLLGVCTLEPPFYIVTEYMPYGNLLDYLRECNREEVTAVVLLYMATQISSAMEYLEKKNFIHRDLAARNCLVGENHVVKVADFGLSRLMTGDTYTAHAGAKFPIKWTAPESLAYNTFSIKSDVWAFGVLLWEIATYGMSPYPGIDLSQVYDLLEKGYRMEQPEGCPPKVYELMRACWKWSPADRPSFAETHQAFETMFHDSSISEEVAEELGRAASSSSVVPYLPRLPILPSKTRTLKKQVENKENIEGAQDATENSASSLAPGFIRGAQASSGSPALPRKQRDKSPSSLLEDAKETCFTRDRKGGFFSSFMKKRNAPTPPKRSSSFREMENQPHKKYELTGNFSSVASLQHADGFSFTPAQQEANLVPPKCYGGSFAQRNLCNDDGGGGGGSGTAGGGWSGITGFFTPRLIKKTLGLRAGKPTASDDTSKPFPRSNSTSSMSSGLPEQDRMAMTLPRNCQRSKLQLERTVSTSSQPEENVDRANDMLPKKSEESAAPSRERPKAKLLPRGATALPLRTPSGDLAITEKDPPGVGVAGVAAAPKGKEKNGGARLGMAGVPEDGEQPGWPSPAKAAPVLPTTHNHKVPVLISPTLKHTPADVQLIGTDSQGNKFKLLSEHQVTSSGDKDRPRRVKPKCAPPPPPVMRLLQHPSICSDPTEEPTALTAGQSTSETQEGGKKAALGAVPISGKAGRPVMPPPQVPLPTSSISPAKMANGTAGTKVALRKTKQAAEKISADKISKEALLECADLLSSALTEPVPNSQLVDTGHQLLDYCSGYVDCIPQTRNKFAFREAVSKLELSLQELQVSSAAAGVPGTNPVLNNLLSCVQEISDVVQR | 1.04 | 4.63 | 4.47 |
| APBB2 (protein, UniProt Q92870 1-758, looked up) Amyloid beta precursor …: MSEVLPADSGVDTLAVFMASSGTTDVTNRNSPATPPNTLNLRSSHNELLNAEIKHTETKNSTPPKCRKKYALTNIQAAMGLSDPAAQPLLGNGSANIKLVKNGENQLRKAAEQGQQDPNKNLSPTAVINITSEKLEGKEPHPQDSSSCEILPSQPRRTKSFLNYYADLETSARELEQNRGNHHGTAEEKSQPVQGQASTIIGNGDLLLQKPNRPQSSPEDGQVATVSSSPETKKDHPKTGAKTDCALHRIQNLAPSDEESSWTTLSQDSASPSSPDETDIWSDHSFQTDPDLPPGWKRVSDIAGTYYWHIPTGTTQWERPVSIPADLQGSRKGSLSSVTPSPTPENEKQPWSDFAVLNGGKINSDIWKDLHAATVNPDPSLKEFEGATLRYASLKLRNAPHPDDDDSCSINSDPEAKCFAVRSLGWVEMAEEDLAPGKSSVAVNNCIRQLSYCKNDIRDTVGIWGEGKDMYLILENDMLSLVDPMDRSVLHSQPIVSIRVWGVGRDNGRDFAYVARDKDTRILKCHVFRCDTPAKAIATSLHEICSKIMAERKNAKALACSSLQERANVNLDVPLQVDFPTPKTELVQKFHVQYLGMLPVDKPVGMDILNSAIENLMTSSNKEDWLSVNMNVADATVTVISEKNEEEVLVECRVRFLSFMGVGKDVHTFAFIMDTGNQRFECHVFWCEPNAGNVSEAVQAACMLRYQKCLVARPPSQKVRPPPPPADSVTRRVTTNVKRGVLSLIDTLKQKRPVTEMP | 1.05 | 3.05 | 2.92 |
